{"source": "paper PMC9418484", "about": "(The Journal of Experimental Medicine, 2022)", "key": {"[1]": {"target": "T1, SARS-CoV-2 Wuhan-Hu-1 receptor-binding domain (RBD), S protein residues 319-539 (SARS-CoV-2 Wuhan-Hu-1, UniProt P0DTC2)"}, "[2]": {"target": "T1, SARS-CoV-2 Wuhan-Hu-1 receptor-binding …", "experiment": "BLI", "settings": "both partners purified"}}, "note": "Read-outs that look alike come from different tables or passages of the source.", "data": [{"binder": "AZ229 (antibody, V domains shown) VH: EVQLVESGGGLVQPGGSLRLSCAASGFTFSSDDMHWVRQATGKGLEWVSAIGTSGDTYYSESVKGRFTISRDNAKSSLYLQMNSLRAGDTAVYYCARGRVYDGPTSDRHYYYYVMDLWGHGTTVAVSS VL: DIQMTQSPSSLSASVGDRVTITCRASQSINKYLNWYQQKPGKAPKLLIYAASSLQGGVPSRFSGSGSGTDFTLTITTLQPEDFATYYCQQSYSAPPWTFAQGTKVEIK", "values": [{"measurement": "binding result", "setting": "[1]", "result": "binds"}]}, {"binder": "AZ090 IgG (antibody, V domains shown) VH: QVQLVQSGPEVKKPGTSVKVSCKASQFTFSISAVQWVRQARGQRLEWMGWIVVGSGNTDYAQRFQERVTISRDMSAGTVYMELRSLRSEDTAVYYCAAPYCNKTNCRDGFDMWGQGTMVTVSS VL: EIVLTQSPGTLSLSPGERATLSCRASQSVSSSYLAWYQQKPGQAPRLLIYGASRRATGIPDRFSGSASGTDFILTISRLEPEDFAVYYCQQYRNSPWTFGQGTKVEIK", "values": [{"measurement": "binding result", "setting": "[2]", "result": "binds"}]}, {"binder": "C105 (antibody, V domains shown) VH: QVQLVESGGGLIQPGGSLRLSCAASGFTVSSNYMSWVRQAPGKGLEWVSVIYSGGSTYYADSVKGRFTISRDNSKNTLYLQMNSLRAEDTAVYYCARGEGWELPYDYWGQGTLVTVSS VL: QSALTQPPSASGSPGQSVTISCTGTSSDVGGYKYVSWYQQHPGKAPKLMIYEVSKRPSGVPDRFSGSKSGNTASLTVSGLQAEDEADYYCSSYEGSNNFVVFGGGTKLTVL", "values": [{"measurement": "binding result", "setting": "[2]", "result": "binds"}]}]}
